Experimental findings from patent publication US20150197564A1 are described below.

The assay concerns the target hANGPTL3(17-460)-His (human) (UniProt Q9Y5C1). Nature of the assay: Biacore cross-competition, 25C; first antibody at 25 µg/ml on captured antigen.

Sequence of hANGPTL3(17-460)-His (human) (Q9Y5C1 other isoform, or with tags, fused parts or gaps): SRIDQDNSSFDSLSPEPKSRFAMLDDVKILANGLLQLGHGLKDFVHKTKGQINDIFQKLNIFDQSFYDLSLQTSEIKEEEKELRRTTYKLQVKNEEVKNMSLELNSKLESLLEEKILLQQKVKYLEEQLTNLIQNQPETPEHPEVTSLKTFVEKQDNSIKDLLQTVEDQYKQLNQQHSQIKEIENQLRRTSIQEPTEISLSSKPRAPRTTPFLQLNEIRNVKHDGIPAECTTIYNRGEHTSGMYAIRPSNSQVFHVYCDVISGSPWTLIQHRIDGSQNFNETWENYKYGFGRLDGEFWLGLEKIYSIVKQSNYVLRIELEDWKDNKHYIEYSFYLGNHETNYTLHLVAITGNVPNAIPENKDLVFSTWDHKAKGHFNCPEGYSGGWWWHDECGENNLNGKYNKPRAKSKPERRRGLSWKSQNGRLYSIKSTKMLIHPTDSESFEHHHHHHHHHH

Substance Negative Control (Table 8) (antibody) displayed a mAb1 binding response (RU) of 81 RU.
